According to patent publication EP0577752B2:

Molecular target: IL-8 binding sites on human neutrophils (human)
Experiment: competition of 125I-IL-8 by unlabelled IL-8 on human neutrophils, 2 hr at 4 degrees

human 72 amino acid IL-8 (from UniProt P10145 21-99) (ligand)
Kd: 1.1 nM
binding sites/cell (binding sites/cell): 31000
